Data as given in PMC3474823.

Biological target: HA-LIMK2 (pcDNA3-(HA)2-LIMK2) (UniProt P53671)
Chain of UniProt P53671 (P53671 whole entry): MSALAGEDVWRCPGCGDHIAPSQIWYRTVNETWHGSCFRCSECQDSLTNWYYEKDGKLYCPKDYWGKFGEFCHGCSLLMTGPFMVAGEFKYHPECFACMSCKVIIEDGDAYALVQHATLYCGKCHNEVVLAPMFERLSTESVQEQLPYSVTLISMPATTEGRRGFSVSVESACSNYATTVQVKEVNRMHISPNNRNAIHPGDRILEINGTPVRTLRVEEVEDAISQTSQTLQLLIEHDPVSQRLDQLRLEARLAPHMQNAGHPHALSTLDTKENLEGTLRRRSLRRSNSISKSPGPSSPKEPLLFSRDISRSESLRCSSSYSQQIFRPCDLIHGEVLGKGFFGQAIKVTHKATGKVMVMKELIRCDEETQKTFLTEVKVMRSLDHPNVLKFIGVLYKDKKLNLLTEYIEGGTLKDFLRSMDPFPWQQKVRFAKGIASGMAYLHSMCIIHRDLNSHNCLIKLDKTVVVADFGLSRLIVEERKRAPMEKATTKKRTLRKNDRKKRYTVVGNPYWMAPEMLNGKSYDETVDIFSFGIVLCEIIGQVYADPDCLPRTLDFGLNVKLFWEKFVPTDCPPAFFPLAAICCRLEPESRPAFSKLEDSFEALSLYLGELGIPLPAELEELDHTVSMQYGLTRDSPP

Substance: flag-SecPH (p3XFlag-SecPH) (domain or fragment)
- kinase activity of anti-HA-LIMK2 immunoprecipitate on GST-cofilin (32P, P-cofilin), cells cotransfected with SecPH against the control Galectin-3: 20%
